From patent publication US20240132578A1

Key:
Assay in all cases: cell-based or functional assay
[1] = target: HIV-1 Env of pseudovirus MGRM-D-029 (HIV-1)
[2] = target: HIV-1 Env of pseudovirus MGRM-F1-021 (HIV-1)
[3] = target: HIV-1 Env of pseudovirus MGRM-F1-012 (HIV-1)
[4] = target: HIV-1 Env of pseudovirus MGRM-D-014 (HIV-1)
[5] = target: HIV-1 Env of pseudovirus MGRM-D-019 (HIV-1)
[6] = target: HIV-1 envelope glycoprotein (Env) of isolate MGRM-AE-007 (HIV-1)
[7] = target: HIV-1 Env of pseudovirus MGRM-F1-020 (HIV-1)
[8] = target: HIV-1 Env of isolate MGRM-Chronic-B-004, clade B (HIV-1)
[9] = target: HIV-1 Env of pseudovirus MGRM-F1-010 (clade F) (HIV-1)
[10] = target: HIV-1 Env of isolate 92RW009 (clade A pseudovirus) (HIV-1)
[11] = target: HIV-1 MGRM-AG-008 Env (pseudovirus) (HIV-1)
[12] = target: HIV-1 Env of isolate 92UG031 (clade A pseudovirus) (HIV-1)
[13] = target: HIV-1 MGRM-AE-004 Env (pseudovirus) (HIV-1)
[14] = target: HIV-1 MGRM-AG-001 Env (pseudovirus) (HIV-1)
[15] = target: HIV-1 92UG024 envelope (Env) on pseudovirus (HIV-1)
[16] = target: HIV-1 CMU02 Env (pseudovirus) (HIV-1)
[17] = target: HIV-1 Env of isolate TRO.11 (Acute), clade B (HIV-1)
[18] = target: HIV-1 Env of isolate 93IN905 (Clade C) (HIV-1)
[19] = target: HIV-1 Env of isolate 94UG103 (Clade A) (HIV-1)
[20] = target: HIV-1 Env of isolate MG RM-A-014 (pseudovirus) (HIV-1)
[21] = target: HIV-1 Env of isolate MGRM-D-005 (HIV-1)
[22] = target: HIV-1 Env of isolate MGRM-G-009 (subtype G) (HIV-1)

Chain of 1443_C16 (PG16) (TCN-116) (antibody) (VH): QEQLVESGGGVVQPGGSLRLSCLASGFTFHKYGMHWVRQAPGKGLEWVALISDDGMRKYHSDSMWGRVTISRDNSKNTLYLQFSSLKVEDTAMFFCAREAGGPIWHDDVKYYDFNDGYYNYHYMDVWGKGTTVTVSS
Chain of 1443_C16 (PG16) (TCN-116) (antibody) (VL): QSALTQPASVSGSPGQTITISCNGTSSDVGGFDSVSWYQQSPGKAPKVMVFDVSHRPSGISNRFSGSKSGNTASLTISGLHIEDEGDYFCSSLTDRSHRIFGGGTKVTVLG
Chain of PGT-143 (4980_N08) (antibody) (VH): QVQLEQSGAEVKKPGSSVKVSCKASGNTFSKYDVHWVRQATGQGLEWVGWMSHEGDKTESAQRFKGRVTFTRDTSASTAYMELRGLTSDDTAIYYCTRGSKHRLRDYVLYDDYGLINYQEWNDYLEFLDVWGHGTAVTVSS
Chain of PGT-143 (4980_N08) (antibody) (VL): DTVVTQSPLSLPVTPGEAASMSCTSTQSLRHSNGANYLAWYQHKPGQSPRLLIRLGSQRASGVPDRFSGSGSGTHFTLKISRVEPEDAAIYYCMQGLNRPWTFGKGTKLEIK
Chain of PGT-142 (4995_E20) (antibody) (VH): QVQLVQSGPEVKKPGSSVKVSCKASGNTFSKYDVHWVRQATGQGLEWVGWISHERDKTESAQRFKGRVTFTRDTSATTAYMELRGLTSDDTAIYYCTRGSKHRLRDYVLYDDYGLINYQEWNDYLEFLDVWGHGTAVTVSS
Chain of PGT-142 (4995_E20) (antibody) (VL): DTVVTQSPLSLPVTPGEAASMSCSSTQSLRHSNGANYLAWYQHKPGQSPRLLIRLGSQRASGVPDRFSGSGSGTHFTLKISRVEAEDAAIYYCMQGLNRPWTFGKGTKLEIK
Chain of 4993_K13 (PGT-141) (antibody) (VH): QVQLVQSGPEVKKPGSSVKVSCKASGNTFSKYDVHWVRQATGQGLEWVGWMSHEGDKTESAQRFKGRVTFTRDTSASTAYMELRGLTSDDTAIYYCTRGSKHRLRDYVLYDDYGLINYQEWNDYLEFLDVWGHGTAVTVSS
Chain of 4970_K22 (PGT-144) (antibody) (VH): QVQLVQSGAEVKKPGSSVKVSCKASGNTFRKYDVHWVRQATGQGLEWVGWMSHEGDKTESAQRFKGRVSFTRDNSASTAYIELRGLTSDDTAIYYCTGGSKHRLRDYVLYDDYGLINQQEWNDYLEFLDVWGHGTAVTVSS
Chain of 4970_K22 (PGT-144) (antibody) (VL): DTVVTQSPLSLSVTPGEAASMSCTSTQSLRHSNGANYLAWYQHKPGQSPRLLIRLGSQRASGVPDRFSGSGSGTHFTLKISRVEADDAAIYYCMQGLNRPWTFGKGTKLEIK
Chain of 4995_P16 (PGT-145) (antibody) (VH): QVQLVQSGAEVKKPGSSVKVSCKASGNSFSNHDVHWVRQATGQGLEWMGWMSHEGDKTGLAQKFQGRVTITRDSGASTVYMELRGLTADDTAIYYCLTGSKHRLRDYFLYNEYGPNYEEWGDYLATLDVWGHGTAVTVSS
Chain of 4995_P16 (PGT-145) (antibody) (VL): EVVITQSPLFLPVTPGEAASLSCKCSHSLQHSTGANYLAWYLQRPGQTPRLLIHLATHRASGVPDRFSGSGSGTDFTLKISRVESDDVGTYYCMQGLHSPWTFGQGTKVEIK

Row | Substance | IC50, pseudovirus neutralization [1] [µg/mL] | IC50, pseudovirus neutralization [2] [µg/mL] | IC50, pseudovirus neutralization [3] [µg/mL] | IC50, pseudovirus neutralization [4] [µg/mL] | IC50, pseudovirus neutralization [5] [µg/mL] | IC50 [6] [µg/mL] | IC50, pseudovirus neutralization [7] [µg/mL] | IC50 (µg/ml), pseudovirus neutralization [8] [µg/mL] | IC50 (µg/ml), pseudovirus neutralization [10] [µg/mL] | IC50 (µg/ml), pseudovirus neutralization [11] [µg/mL] | IC50 (µg/ml), pseudovirus neutralization [12] [µg/mL] | IC50 (µg/ml), pseudovirus neutralization [13] [µg/mL] | IC50 (µg/ml), pseudovirus neutralization [14] [µg/mL] | neutralization IC50 [15] [µg/mL] | IC50 (µg/ml), pseudovirus neutralization [16] [µg/mL] | IC50 (µg/ml), pseudovirus neutralization [17] [µg/mL] | IC50 (µg/mL), single-round pseudovirus neutralization [20] [µg/mL] | IC50 (µg/mL), pseudovirus neutralization [21] [µg/mL] | IC50 (µg/mL), pseudovirus neutralization [22] [µg/mL] | further results
1 | PGT-141 (4964_G22; 4993_K13) (antibody) | 0.057 | > 50 | > 50 | 0.01 | 1.66 | 33.1 | 1.15 | – | – | – | – | – | – | – | – | – | – | – | – | –
2 | PGT-145 (4995_P16) (antibody) | 0.03 | 8.04 | 0.113 | 2.51 | 0.111 | 0.181 | 0.816 | – | – | – | – | – | – | – | – | – | – | – | – | –
3 | 1495_C14 (PGC14) (antibody) | – | – | – | – | – | – | – | > 50 | > 50 | 45 | > 50 | > 50 | > 50 | > 50 | > 50 | > 50 | – | – | – | IC50 [9]: > 50 µg/mL
4 | 2F5 (antibody) | – | – | – | – | – | – | – | 2.41 | 39.1 | 0.54 | 3.81 | 0.98 | 0.75 | 1.27 | 0.6 | > 50 | – | – | – | IC50 [9]: 14.6 µg/mL; IC90 (neutralization of pseudovirus) [18]: > 50 µg/mL; IC90 (neutralization of pseudovirus) [19]: 46.6 µg/mL
5 | VRC01 (antibody) | 3.22 | 0.039 | 0.488 | 0.332 | 0.119 | 0.835 | 1.89 | – | – | – | – | – | – | – | – | – | 0.135 | > 50 | 0.073 | –
6 | 4995_P16 (PGT-145) (antibody) | – | – | – | – | – | – | – | – | – | – | – | – | – | – | – | – | 1.36 | 10.4 | 0.982 | –
7 | b12 (antibody) | – | – | – | – | – | – | – | 0.26 | > 50 | > 50 | > 50 | > 50 | 11.9 | 49.1 | 29.3 | > 50 | – | – | – | IC50 [9]: > 50 µg/mL; IC90 (neutralization of pseudovirus) [18]: > 50 µg/mL; IC90 (neutralization of pseudovirus) [19]: 47.3 µg/mL
8 | PGT-144 (4970_K22) (antibody) | 0.459 | > 50 | > 50 | 0.113 | > 50 | > 50 | 8.93 | – | – | – | – | – | – | – | – | – | – | – | – | –
9 | 4995_E20 (PGT-142) (antibody) | – | – | – | – | – | – | – | – | – | – | – | – | – | – | – | – | 0.367 | 1.15 | 2.81 | –
10 | 4970_K22 (PGT-144) (antibody) | – | – | – | – | – | – | – | – | – | – | – | – | – | – | – | – | > 50 | 14.8 | > 50 | –
11 | 4E10 (antibody) | – | – | – | – | – | – | – | 3.7 | > 50 | 1.48 | 4.94 | 1.27 | 1.12 | 1.32 | 0.72 | 1.39 | – | – | – | IC50 [9]: 3.69 µg/mL; IC90 (neutralization of pseudovirus) [18]: 12.8 µg/mL; IC90 (neutralization of pseudovirus) [19]: > 50 µg/mL
12 | PGT-143 (4980_N08) (antibody) | 0.2 | > 50 | > 50 | 0.009 | 0.277 | 13.6 | 0.98 | – | – | – | – | – | – | – | – | – | – | – | – | –
13 | 2G12 (antibody) | – | – | – | – | – | – | – | 8.65 | 26.1 | > 50 | > 50 | > 50 | 0.69 | 0.59 | > 50 | 0.29 | – | – | – | IC90 (neutralization of pseudovirus) [18]: > 50 µg/mL; IC90 (neutralization of pseudovirus) [19]: > 50 µg/mL
14 | 1443_C16 (PG16) (TCN-116) (antibody) | – | – | – | – | – | – | – | 0.01 | 0.11 | 0.002 | 0.43 | 0.002 | 0.03 | > 50 | 43.6 | 0.22 | – | – | – | IC50 [9]: 0.01 µg/mL; IC90 (neutralization of pseudovirus) [18]: > 50 µg/mL; IC90 (neutralization of pseudovirus) [19]: 1.59 µg/mL
15 | 4980_N08 (PGT-143) (antibody) | – | – | – | – | – | – | – | – | – | – | – | – | – | – | – | – | 1.07 | 1.41 | 2.97 | –
16 | PGT-142 (4995_E20) (antibody) | 0.192 | > 50 | > 50 | 0.005 | 0.155 | 6.7 | 0.824 | – | – | – | – | – | – | – | – | – | – | – | – | –
17 | 4993_K13 (PGT-141) (antibody) | – | – | – | – | – | – | – | – | – | – | – | – | – | – | – | – | 0.628 | 5.15 | 1.89 | –
